# Positions count from the first letter of the chain named.
# B1: 1F12 (parent antibody), full-length human IgG1 (antibody, V domains shown)
# VH: EVQLLESGGGLVQPGGSLRLSCAASGFTFSNYAMSWVRQAPGKGLEWVSGISYSGGSTYYADSVKGRFTISRDNSKNTLYLQMNSLRAEDTAVYYCAKASRSCQRPACSYANGMDVWGQGTLVTVSS
# VL: QSVLTQPPSASGTPGQRVTISCTGSSSNIGNNYVTWYQQLPGTAPKLLIYYNNHRPSGVPDRFSGSKSGTSASLAISGLQSEDEADYYCGSWDYSLSAYVFGGGTKLTVL
# B2: 1F12_L27bD, full-length human IgG1 (antibody, V domains shown)
# VH: B1 VH
# VL: B1 VL with N28D
# B3: 1F12_H58D, full-length human IgG1 (antibody, V domains shown)
# VH: B1 VH with Y59D
# VL: B1 VL
# B4: 1F12_H60N, full-length human IgG1 (antibody, V domains shown)
# VH: B1 VH with A61N
# VL: B1 VL
# B5: 1F12_H57K, full-length human IgG1 (antibody, V domains shown)
# VH: B1 VH with T58K
# VL: B1 VL
# B6: 1F12_L95aR, full-length human IgG1 (antibody, V domains shown)
# VH: B1 VH
# VL: B1 VL with S97R
# B7: 1F12_L50E, full-length human IgG1 (antibody, V domains shown)
# VH: B1 VH
# VL: B1 VL with Y51E
# B8: 1F12_H35H, full-length human IgG1 (antibody, V domains shown)
# VH: B1 VH with S35H
# VL: B1 VL
# B9: 1F12_H53D, full-length human IgG1 (antibody, V domains shown)
# VH: B1 VH with S54D
# VL: B1 VL
# B10: 1F12_L26D, full-length human IgG1 (antibody, V domains shown)
# VH: B1 VH
# VL: B1 VL with S25D
# B11: 1F12_L96D, full-length human IgG1 (antibody, V domains shown)
# VH: B1 VH
# VL: B1 VL with Y99D
# B12: 1F12_H100eH, full-length human IgG1 (antibody, V domains shown)
# VH: B1 VH with S109H
# VL: B1 VL
# B13: 1F12_L51D, full-length human IgG1 (antibody, V domains shown)
# VH: B1 VH
# VL: B1 VL with N52D
# B14: 1F12_H2L6, full-length human IgG1 (antibody, V domains shown)
# VH: B1 VH with S54D
# VL: B1 VL with Y99D
# B15: 1F12_H2L3, full-length human IgG1 (antibody, V domains shown)
# VH: B1 VH with S54D
# VL: B1 VL with Y51E
# B16: 1F12_H6L5, full-length human IgG1 (antibody, V domains shown)
# VH: B1 VH with S109H
# VL: B1 VL with S97R
# B17: 1F12_H3L5, full-length human IgG1 (antibody, V domains shown)
# VH: B1 VH with T58K
# VL: B1 VL with S97R
# Biological target: c-Met on cancer cell lines (Caki-1 renal cell carcinoma; MKN45 c-Met-amplified gastric cancer) (UniProt P08581)
# Sequence (P08581 25-1390): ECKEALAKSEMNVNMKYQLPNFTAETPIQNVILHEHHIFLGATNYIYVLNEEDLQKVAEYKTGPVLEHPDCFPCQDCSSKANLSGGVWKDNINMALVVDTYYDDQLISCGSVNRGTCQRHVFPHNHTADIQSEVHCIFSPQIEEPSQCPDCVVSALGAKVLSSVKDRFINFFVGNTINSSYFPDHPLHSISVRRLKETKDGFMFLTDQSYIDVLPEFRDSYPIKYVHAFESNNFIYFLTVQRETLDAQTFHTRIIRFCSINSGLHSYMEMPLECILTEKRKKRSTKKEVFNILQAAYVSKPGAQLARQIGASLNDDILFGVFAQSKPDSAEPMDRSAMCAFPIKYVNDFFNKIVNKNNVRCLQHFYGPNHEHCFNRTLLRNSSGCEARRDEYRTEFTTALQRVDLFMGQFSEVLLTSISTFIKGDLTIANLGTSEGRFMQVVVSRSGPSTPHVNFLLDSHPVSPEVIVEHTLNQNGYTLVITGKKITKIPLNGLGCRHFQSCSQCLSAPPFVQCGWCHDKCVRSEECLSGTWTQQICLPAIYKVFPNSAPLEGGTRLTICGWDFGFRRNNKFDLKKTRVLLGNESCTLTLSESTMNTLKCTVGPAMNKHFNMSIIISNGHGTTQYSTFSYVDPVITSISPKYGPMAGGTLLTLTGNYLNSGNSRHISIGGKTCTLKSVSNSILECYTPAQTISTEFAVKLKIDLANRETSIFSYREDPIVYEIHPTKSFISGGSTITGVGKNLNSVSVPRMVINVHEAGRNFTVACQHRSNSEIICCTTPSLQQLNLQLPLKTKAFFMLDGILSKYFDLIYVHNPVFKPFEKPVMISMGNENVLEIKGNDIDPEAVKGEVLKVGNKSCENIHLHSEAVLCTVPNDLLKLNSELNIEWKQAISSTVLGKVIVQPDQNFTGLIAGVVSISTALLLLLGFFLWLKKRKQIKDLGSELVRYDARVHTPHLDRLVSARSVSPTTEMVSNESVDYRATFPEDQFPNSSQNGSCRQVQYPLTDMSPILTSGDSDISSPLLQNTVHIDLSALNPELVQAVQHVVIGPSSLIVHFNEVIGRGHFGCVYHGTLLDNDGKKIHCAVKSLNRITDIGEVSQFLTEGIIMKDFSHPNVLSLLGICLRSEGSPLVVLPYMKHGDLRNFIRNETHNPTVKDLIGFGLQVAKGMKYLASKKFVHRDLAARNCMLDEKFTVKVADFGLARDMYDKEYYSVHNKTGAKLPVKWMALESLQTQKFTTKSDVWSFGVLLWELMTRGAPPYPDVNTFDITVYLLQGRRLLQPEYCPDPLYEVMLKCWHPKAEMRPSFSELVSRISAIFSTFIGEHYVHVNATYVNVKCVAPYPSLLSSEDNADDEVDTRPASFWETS
# Experiment: cell-based or functional assay
row,"agonist activity: Akt phosphorylation in Caki-1 cells, Mean (%) (PBS = 0%, HGF/SF = 100%)",Molecule
1,86,"5D5, c-Met agonist antibody"
2,100,c-Met ligand HGF/SF (R&D systems) (from UniProt P14210 32-728)
3,30.5,"Onartuzumab (OA-5D5; monovalent c-Met antibody, Genentech)"

# Biological target: c-Met on cancer cell lines (Caki-1 renal cell carcinoma; MKN45 c-Met-amplified gastric cancer) (UniProt P08581 25-1390)
# Sequence (P08581 25-1390): as above
# Experiment: cell-based or functional assay
row,"agonist activity: Akt phosphorylation in Caki-1 cells, Mean (%) (PBS = 0%, HGF/SF = 100%)",Molecule
1,18.2,B1
2,30.3,B2
3,21.5,B3
4,27.7,B4
5,26.8,B5
6,29.5,B6
7,37.2,B7
8,17.3,B8
9,24.5,B9
10,38.1,B10
11,21.2,B11
12,27.5,B12
13,42.5,B13
14,26,B14
15,24.5,B15
16,18.2,B16
17,18.9,B17

# — patent US20210363262A1 (AIMED BIO, published 2021)
